These are literature values, as cited in PMC4271544.

In the series the target is Capping protein (CP) (Homo sapiens) (UniProt P52907).

In the case of V-1 (myotrophin) (from UniProt P58546), the Kd is 40 nM.

By Kd is commonly meant the constant that tells how readily two partners part at equilibrium.
